The values that follow come from patent EP4474393A1.

Assay in all cases: cell-based or functional assay
The target of assay [1] is HIV-1 envelope proteins of the panel of 12 global reference pseudovirus strains of HIV-1.
In assay [2] the target is HIV-1 envelope proteins of the panel of 8 pseudoviruses insensitive to neutralization by CD4bs bNAbs.
The target of assay [3] is HIV-1 envelope proteins of the panel of 7 pseudoviruses selected from the 'Resistant panel to CD4bs bNAbs'.
Assay [4] deals with HIV-1 envelope proteins of the panel of 100 clade C HIV-1 pseudoviruses.
For assay [5], the target named is HIV-1 envelope proteins of the panel of 185 pseudoviruses generated from the Antibody Mediated Prevention Trials.
Assay [6] has as its target HIV-1 envelope proteins of the panel of 9 pseudoviruses resistant against CD4bs bNAbs.
In assay [7] the target is HIV-1 envelope proteins of the multiclade panel of 119 pseudoviruses.

B1: 01_B01 (antibody, V domains shown)
VH: HVQLWQSGAEVKKPGASVKISCAAWGFGTTSGYSFRDYRIHWVRQVPGQGFQWMGHIQPRYGAVNYAHQFQGRITMTREVSFDASGGTAYMELRSLRSDDTATYYCVTHKLYDGEDASDLAWRLDPWGQGTRVTVSS
VL: GVHLTQSPASLSASVGDRVTFTCQASQDITNAINWYQLRPGKTPKLMIHDGSTLRRGVPSRFAGGGFGTKFTFTIDNLQPEDLATYFCQHYEFFPPAGTQVELN
In assay [1], B1 showed a geometric mean IC50, TZM-bl cell pseudovirus neutralization assay of less than 0.05 µg/mL and a neutralization breadth, TZM-bl cell pseudovirus neutralization assay of 100%.

B2: 01_D03 (antibody, V domains shown)
VH: HVQLWQSGAEVKKPGASVKISCSAWGFGTTSGYSFRDYRVHWVRHIAGQGFQWMGHMQPRYGAVNYARQFQGRITMTREVSFDASGGTAYMELRSLRSDDTAVYYCVTHKLYDGEDASDLTWRLDPWGQGTRVIVSS
VL: GVHLTQSPASLSASVGDRVTFTCQASQDITNAINWYQLRPGKTPKLMIHDGSTLRRGVPSRFAGSGFGTKFTFTIDNLQPEDLATYFCQHYEFFPPVGTQVELN
For the molecule B2, in assay [1], the geometric mean IC50, TZM-bl cell pseudovirus neutralization assay turned out to be 0.021 µg/mL and the neutralization breadth, TZM-bl cell pseudovirus neutralization assay came to 100%. This molecule also returned a neutralization breadth, TZM-bl cell pseudovirus neutralization assay in assay [2] of 88%.

B3: 05_C07 (antibody, V domains shown)
VH: HVQLWQSGAEVKKPGASVKISCSAWGFGTRSGYTFRDYRIHWVRQVPRQGFEWMGHLHPAYGAVNYARQFQGRIIMTREVSFDGSGGTVYMELRSLRSDDTATYYCVTHKLYDGEDASDLTWRLDPWGQGTRVTVSS
VL: GVSLTQSPASLCASVGDRVTFTCQASQDITNAINWYQLRPGKTPKLMIHDGSTLRRGVPSRFAGSGFGTRFTFTIDNLQPEDLATYFCQHYEFFPPAGTQVDFN
In assay [1], B3 gave a geometric mean IC50, TZM-bl cell pseudovirus neutralization assay of less than 0.05 µg/mL and a neutralization breadth, TZM-bl cell pseudovirus neutralization assay of 100%.

B4: 04_A06 (antibody, V domains shown)
VH: SVRLDQSGTAVKKPGASVRVSCRAPDSFTVYRPRLSAYFIGEFNIHWLRQAPGQGLEWLGFVNIFRGAVKYSSRFQGRITITRDTSSETSYLDLGALKADDTATYYCAWDKNVDDNPWRLDSWGQGTLVIVSS
VL: YIQVTQSPSSLSASIGDTITVACEVSQDVGWAVNWYHQRPGRPPYNLIYTAHNLAPGVASRFRGSRVGTYFTLTINNLLPEDVGTYYCQVFDSFAPGGTRVDL
Consider B4, for which, in assay [3], the IC50, TZM-bl cell pseudovirus neutralization assay came to 0.153 µg/mL. The neutralization breadth, TZM-bl cell pseudovirus neutralization assay, up to 10 µg/ml was 86% in assay [3], 99% in assay [4], 100% in assay [6] and 99% in assay [7]. The figures for the geometric mean IC50, TZM-bl cell pseudovirus neutralization assay in assay [1], in assay [4] and in assay [7] were 0.038 µg/mL, 0.057 µg/mL and 0.036 µg/mL, respectively. Further, the neutralization breadth, TZM-bl cell pseudovirus neutralization assay is 100% in assay [1] and less than 98% in assay [5]. In assay [5], this molecule yielded a GeoMean IC50, TZM-bl cell pseudovirus neutralization assay of 0.084 µg/mL.

B5: 04_B09 (antibody, V domains shown)
VH: SVRLDQSGTAVKKPGASVRVSCRAPDSFTVYRPRLSAYFIGEFNIHWLRQAPGQGLEWLGFVNIFRGAVKYSSAFRGRITITRDTSLETSYLDLGALKPDDTATYFCAWDKNVDDNPWRLDSWGQGTLVVVSS
VL: YIQVTQSPSSLSASVGDTITVACQVSQDVGWAVNWYHQRPGRPPYNLIYTTSNLAPGVASRFRGTRVATYFTLTINNLLPEDVGTYYCQVFESFAPGGTRVDLR
Turning to B5, in assay [1], the geometric mean IC50, TZM-bl cell pseudovirus neutralization assay is less than 0.05 µg/mL and the neutralization breadth, TZM-bl cell pseudovirus neutralization assay was found to be 100%.
